In patent US20090136998A1 (Stanford University, published 2009):

Target: T1, human VEGFR-2 expressed on porcine aortic endothelial cells (PAE/VEGFR-2) (human, UniProt P35968 20-1356)
T1 construct: whole, on cells; also called KDR; PAE/KDR cells
Experiment: competitive bioluminescence ELISA on PAE/VEGFR-2 cells; cold VEGF 121 varied against RL8-VEGF
Method: FIG. 10A illustrates coomassie Blue staining of purified fusion proteins and control proteins. […] FIG. 10B illustrates a Western Blot of purified proteins. […] FIG. 10C illustrates competitive bioluminescence ELISA on PAE/VEGFR-2 overexpressing cells.
Cells were washed and incubated with 0.5 μg of coelenterazine substrate and immediately imaged in the Xenogen IVIS 100 optical cooled charge-coupled device (CCD) (Xenogen, Alameda, Calif.). Regions of interest (ROIs) were drawn over the cell area and quantified in average photons/second/centimeter²/steradian (photons/s/cm²/sr) by using […] version 2.50 (Xenogen, Alameda, Calif.).

T1 sequence (P35968 20-1356): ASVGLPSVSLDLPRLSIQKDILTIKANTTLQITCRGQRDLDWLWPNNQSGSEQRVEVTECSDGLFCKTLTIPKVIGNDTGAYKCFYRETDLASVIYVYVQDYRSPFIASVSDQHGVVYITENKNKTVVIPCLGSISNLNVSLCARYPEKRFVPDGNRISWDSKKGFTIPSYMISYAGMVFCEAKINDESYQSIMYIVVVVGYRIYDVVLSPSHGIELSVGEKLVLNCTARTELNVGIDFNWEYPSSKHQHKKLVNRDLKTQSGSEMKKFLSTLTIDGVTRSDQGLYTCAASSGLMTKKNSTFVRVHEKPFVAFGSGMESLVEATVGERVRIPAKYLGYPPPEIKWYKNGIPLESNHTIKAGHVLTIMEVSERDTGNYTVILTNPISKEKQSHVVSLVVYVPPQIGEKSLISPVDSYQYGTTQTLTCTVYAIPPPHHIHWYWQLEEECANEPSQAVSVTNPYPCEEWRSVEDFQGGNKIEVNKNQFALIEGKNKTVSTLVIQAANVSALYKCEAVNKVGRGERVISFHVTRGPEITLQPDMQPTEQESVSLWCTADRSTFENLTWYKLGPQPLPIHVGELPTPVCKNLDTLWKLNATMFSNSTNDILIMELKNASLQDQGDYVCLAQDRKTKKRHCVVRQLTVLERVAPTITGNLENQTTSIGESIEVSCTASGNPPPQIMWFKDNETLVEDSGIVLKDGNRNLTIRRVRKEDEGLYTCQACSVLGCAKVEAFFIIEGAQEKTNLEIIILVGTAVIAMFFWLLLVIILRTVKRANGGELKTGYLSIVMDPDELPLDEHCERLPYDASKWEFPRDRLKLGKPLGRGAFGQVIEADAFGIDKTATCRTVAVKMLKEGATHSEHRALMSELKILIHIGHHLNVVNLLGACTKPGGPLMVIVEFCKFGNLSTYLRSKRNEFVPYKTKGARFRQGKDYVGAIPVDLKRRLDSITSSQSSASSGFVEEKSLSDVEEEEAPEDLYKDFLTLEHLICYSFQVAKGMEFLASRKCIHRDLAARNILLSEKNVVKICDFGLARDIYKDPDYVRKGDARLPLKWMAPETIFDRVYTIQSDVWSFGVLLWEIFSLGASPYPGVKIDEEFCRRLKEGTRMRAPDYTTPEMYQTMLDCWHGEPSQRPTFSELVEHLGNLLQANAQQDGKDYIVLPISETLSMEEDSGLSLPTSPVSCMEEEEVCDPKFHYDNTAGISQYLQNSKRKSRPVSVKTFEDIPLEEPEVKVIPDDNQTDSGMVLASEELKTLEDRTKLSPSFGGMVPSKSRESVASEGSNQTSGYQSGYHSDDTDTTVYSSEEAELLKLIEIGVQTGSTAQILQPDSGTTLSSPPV

IC50: 0.045 µg/mL
B1: recombinant human VEGF 121 (PeproTech) (ligand, UniProt P15692-9 27-147, looked up)
chain: APMAEGGGQNHHEVVKFMDVYQRSYCHPIETLVDIFQEYPDEIEYIFKPSCVPLMRCGGCCNDEGLECVPTEESNITMQIMRIKPHQGQHIGEMSFLQHNKCECRPKKDRARQEKCDKPRR
